According to patent publication US20220403048A1, “BINDING MOLECULES TO ARGINASE II [ARG2]” (Cancer Research Technology Limited, priority 2019, published 2022):
Positions count from the first letter of the chain named.

T1: human ARG2 (Homo sapiens, UniProt P78540, E275H/R327K)
T1 construct: His10 (after a GGG linker) (C); made in house; host or cells: E. coli BL21 (DE3)
T1 sequence (P78540 23-354 E275H/R327K): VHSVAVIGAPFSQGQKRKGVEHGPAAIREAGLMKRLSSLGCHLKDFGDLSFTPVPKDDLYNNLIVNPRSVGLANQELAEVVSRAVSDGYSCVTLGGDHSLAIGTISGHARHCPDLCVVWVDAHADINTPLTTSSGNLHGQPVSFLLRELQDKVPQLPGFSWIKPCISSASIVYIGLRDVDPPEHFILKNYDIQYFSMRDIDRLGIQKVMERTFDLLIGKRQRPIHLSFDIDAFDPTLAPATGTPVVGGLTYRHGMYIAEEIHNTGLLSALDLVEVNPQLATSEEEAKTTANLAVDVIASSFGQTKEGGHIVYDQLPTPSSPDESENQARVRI

T2: human ARG1 (Homo sapiens, UniProt P05089)
T2 construct: Avi tag (N); His10 (after a GGG linker) (C); made in house; host or cells: E. coli BL21 (DE3)
T2 sequence (P05089 with tags, fused parts or gaps): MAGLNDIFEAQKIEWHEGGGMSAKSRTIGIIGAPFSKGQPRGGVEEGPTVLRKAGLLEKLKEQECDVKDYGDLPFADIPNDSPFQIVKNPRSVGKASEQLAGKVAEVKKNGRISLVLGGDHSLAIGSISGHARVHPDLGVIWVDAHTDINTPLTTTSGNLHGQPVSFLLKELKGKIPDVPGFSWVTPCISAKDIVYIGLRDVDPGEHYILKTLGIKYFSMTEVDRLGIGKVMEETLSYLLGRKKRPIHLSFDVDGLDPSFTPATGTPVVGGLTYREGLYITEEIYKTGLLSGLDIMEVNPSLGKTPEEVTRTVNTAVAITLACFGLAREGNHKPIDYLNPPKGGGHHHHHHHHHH

B1: C0021032 Fab (antibody, V domains shown)
VH: EVQLLESGGGLVQPGGSLRLSCAASGFTFSSYAMSWVRQAPGKGLEWVSAYGYGIGSTYYADSVKGRFTISRDNSKNTLYLQMNSLRAEDTAVYYCARLRADLGLYMDLWGRGTLVTVSS
VL: QSVLTQPPSVSAAPGQKVTISCSGSSSNIGNHYVSWYQQLPGTAPKLLIYDNSERPSGIPDRFSGSKSGTSATLGITGLQTGDEADYYCGTWDSSLSALVFGGGTKLTVL
B2: C0021142 Fab (antibody, V domains shown)
VH: B1 VH with Y51H, G52T, Y53H, G54S, I55P
VL: B1 VL
B3: C0021101 Fab (antibody, V domains shown)
VH: EVQLLESGGGLVQPGGSLRLSCAASGFTFSSYAMSWVRQAPGKGPEWVSAISGFSPYYADSVKGRFTISRDNSKNTLYLQMNSLRAEDTAVYYCARLRADLGLYMDLWGRGTLVTVSS
VL: B1 VL with D51N, S53R, E54S, R55P, P56T
B4: C0021141 Fab (antibody, V domains shown)
VH: B1 VH with S30Y, S31P, Y32D, A33P, M34Q, S35G
VL: B1 VL with K17E, G30D
B5: C0021128: anti-ARG2 antibody, VH SEQ ID NO: 162, VL SEQ ID NO: 167 (antibody, listed as Homo sapiens, V domains shown)
VH: EVQLLESGGGLVQPGGSLRLSCAASGFTFQYEVAAWVRQAPGKGLEWVSAISGPIPKGYYADSVKGRFTISRDNSKNTLYLQMNSLRAEDTAVYYCARLRADLGLYMDLWGRGTLVTVSS
VL: B1 VL with S53A, E54I, R55E, P56S, E84G, S95N
modifications: C0021128
B6: C0021097 Fab (antibody, V domains shown)
VH: B1 VH with Y51I, G52S, G54H, I55P
VL: B1 VL with D51N, N52T, S53F, E54A
B7: C0021118 Fab (antibody, V domains shown)
VH: B1 VH with Y51S, G52L, Y53T, G54N, I55P
VL: B1 VL with G90A, W92Y, S94T, S95N
B8: C0021096 Fab (antibody, V domains shown)
VH: B3 VH with P45L, F54Y, P56G
VL: B1 VL with D51N, N52T, S53E, E54R, P56M
B9: C0021021 Fab (antibody, V domains shown)
VH: B1 VH with A50S, Y51I, G52L, Y53F, G54S, I55P
VL: B1 VL
B10: C0021144: anti-ARG2 antibody, VH SEQ ID NO: 252, VL SEQ ID NO: 257 (antibody, listed as Homo sapiens, V domains shown)
VH: B5 VH with Q30R, E32D, V33Y, A34H, A35V, P54S, I55G, P56G, K57S, G58T
VL: QSVLTQPPSVSAAPGQKVTVSCSGSSSNIGNHHVSWYQQLPGTAPKLLIYDTTVLSSGVPDRFSGSKSGTSATLGITGLQTGDEADYYCGTWDELTSNLVFGGGTKLTVL
modifications: C0021144
B11: C0021155: anti-ARG2 antibody, VH SEQ ID NO: 262, VL SEQ ID NO: 267 (antibody, listed as Homo sapiens, V domains shown)
VH: EVQLLESGGGLVQPGGSLRLSCEASGFTFRYDYHVWVRQAPGKGLEWVSAISGSGGSTYYADPVKGRFTISRDNSKNTLYLQMNSLRAEDTAVYYCARLRADLGLYMDLWGRGTLVTVSS
VL: B10 VL with Q1R, V20I, H33Y, V59I, K106R
modifications: C0021155

Each molecule was assayed against T1, human ARG2 (assay: Bio-Layer Interferometry (OctetRED) binding kinetics, human ARG2). Settings: Fab as analyte; streptavidin capture; analyte 1.8 to 120 nM; affinity-matured antibodies.
Excerpt: (§1) The OctetRED (Pall ForteBio) instrument was used to assess the kinetic parameters of the interactions between C0020187 and recombinantly produced human ARG2, cynomolgus ARG2 and human ARG1. The Octet biosensor uses an optical analytical technique that analyses the interference pattern of white light reflected from two surfaces: a layer of immobilised protein on the sensor tip, and an internal reference layer. Any changes in binding at the biosensor tip result in a shift in interference pattern, which can be measured in real time. Molecules associating with or dissociating from ligands at the biosensor tip shift the interference pattern and generate a response on the Octet system which is recorded by the acquisition software.
(§2) Typically, a defined concentration of the analyte species is brought into contact with the coupled ligand and any binding is detected as an increased in signal (association phase). This is followed by a period of buffer rinse, during which dissociation of the analyte species from the surface immobilised ligand can be observed as a decrease in signal (dissociation phase). Repetition of this with a range of analyte concentrations provides data for the analysis of binding kinetics.
(§3) An Octet Kinetics Buffer (PBS containing 0.01% BSA and 0.002% Tween20) is typically used as the diluent buffer for the analyte samples and as the flow buffer during the dissociation phase. The experimental data is recorded over time as shift in interference pattern (nm) over time, which is directly proportional to the optical thickness at the biosensor tip, which in turn is an approximate measure of the mass of analyte bound. The proprietary Octet Data Analysis software package can then be used to process data and fit binding models to the data sets. Returned association (ka, M^−1 s^−1) and dissociation (kd, s^−1) rate constants allow calculation of dissociation (KD, M) affinity constants.
(§4) The affinity of binding between the Fab of C0020187 and human ARG2, cynomolgus ARG2 and human ARG1 was estimated using assays in which the biotinylated ARG antigen was captured on a streptavidin sensor tip. A fresh sensor tip was used for each measurement and no regeneration was used. A series of dilutions of the C0020187 Fab (3.25-240 nM) were individually placed in contact with the ligand surface for a sufficient amount of time to observe sensorgrams that could be fitted to an appropriate binding model with confidence (typically 5 minutes), followed by an appropriate length of dissociation time (typically 10 minutes). Blank reference (0 nM Fab) data were subtracted from each dataset to reduce the impact of any buffer artefacts or non-specific binding effects. An appropriate binding model was then fitted simultaneously to the data from each analyte titration using the Octet Evaluation software.
(§5) Example results for C0020187 are shown in Table 9, showing the association rate constants (ka), dissociation rate constants (kd) and dissociation constants (KD). These parameters were derived from a 1:1 binding fit to the data.
(§6) The affinities of the affinity-matured antibodies to human ARG2 were measured on the OctetRED system as described in section 1.15 using the streptavidin capture method. Typically, an analyte titration range of 1.8 to 120 nM was used.
The affinities of the second-generation antibodies to human ARG2 were measured on the OctetRED system. A screening assay which stably captures His-tagged ARG2 as the ligand on an anti-His surface was utilised to screen the second-generation candidates as Fabs at an analyte range of 1.8 to 120 nM, with an association time of 5 minutes and a dissociation time of 10 minutes. Sensors were regenerated using 10 mM glycine pH 1.5 after each cycle. Based on this assay, six candidates with estimated affinities in the sub-nanomolar range were identified, and they were further profiled using an extended assay which is more suitable for antibodies of high affinities. […]
Molecule B1 has a ka of 427000 M⁻¹ s⁻¹ and a kd of 0.00228 s⁻¹. With B2 the ka was 399000 M⁻¹ s⁻¹ and the kd was 0.0011 s⁻¹. For B3, the ka was 314000 M⁻¹ s⁻¹ and the kd was 0.00107 s⁻¹. B4 gave a ka of 326000 M⁻¹ s⁻¹ and a kd of 0.00108 s⁻¹. B5 showed a ka of 266000 M⁻¹ s⁻¹ and a kd of 0.000674 s⁻¹. B6 showed a ka of 295000 M⁻¹ s⁻¹ and a kd of 0.00146 s⁻¹. B7 was tested, and the ka was 139000 M⁻¹ s⁻¹ and the kd was 0.00114 s⁻¹. B8 was tested, and the ka was 441000 M⁻¹ s⁻¹ and the kd was 0.00154 s⁻¹. In the case of B9, the ka is reported as 473000 M⁻¹ s⁻¹ and the kd is reported as 0.002 s⁻¹.

Same assay, conditions: second-generation Fab; extended assay: association 10 min, dissociation 40 min, 0.47 to 30 nM, streptavidin surface with bio-ARG2
Molecule B10 has a ka of 195000 M⁻¹ s⁻¹ and a kd of 6.59e-05 s⁻¹. B11 was tested, and the ka was 159000 M⁻¹ s⁻¹ and the kd was 5.67e-05 s⁻¹.

What follows are molecules tested on cynomolgus ARG2 (assay: Bio-Layer Interferometry (OctetRED) binding kinetics, cynomolgus ARG2). Settings: Fab as analyte; cyno ARG2 ligand; affinity-matured antibodies.
Sequence of cynomolgus ARG2 (as listed by the source): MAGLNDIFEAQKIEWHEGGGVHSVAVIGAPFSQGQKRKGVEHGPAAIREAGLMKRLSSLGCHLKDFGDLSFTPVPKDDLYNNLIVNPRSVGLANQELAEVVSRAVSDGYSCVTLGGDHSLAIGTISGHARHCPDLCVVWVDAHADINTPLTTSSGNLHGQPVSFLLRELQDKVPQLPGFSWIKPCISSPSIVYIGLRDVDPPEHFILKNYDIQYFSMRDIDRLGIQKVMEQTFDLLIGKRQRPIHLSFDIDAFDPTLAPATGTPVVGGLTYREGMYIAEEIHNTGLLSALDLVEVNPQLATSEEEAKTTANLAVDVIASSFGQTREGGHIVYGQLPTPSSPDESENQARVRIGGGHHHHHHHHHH
Excerpt: as §1, §2, §3, §4, §5, §6
The affinities of some of these antibodies to cynomolgus ARG2 were determined using the same assay, and the derived kinetic parameters are shown in Table 21.
Molecule B5 has a ka of 437000 M⁻¹ s⁻¹ and a kd of 0.000771 s⁻¹.

What follows are molecules tested against T2, human ARG1 (assay: Bio-Layer Interferometry (OctetRED) binding, human ARG1). Settings: Fab analyte up to 120 nM, screening assay on anti-His surface.
Method: as §4
(§7) The binding of affinity-matured antibodies to human ARG1 was also tested on the OctetRED system using a screening assay which stably captures […] as the ligand on an anti-His surface. The Fabs were typically tested in an analyte range of 1.8 to 120 nM, with an association time of 5 minutes and a dissociation time of 10 minutes. Sensors were regenerated using 10 mM glycine pH 1.5 after each cycle.
as §7, with “Binding” for “The binding”, “the second-generation” for “affinity-matured”, “ARG” for “ARG1”, “were” for “were typically”, “as” for “in an”, “up” for “range of 1.8”
B5 was tested, and the “Results, binding to human ARG1 (BLI)” value was “No binding observed”. In the case of B10, the “Results, binding to human ARG1 (BLI)” value is reported as “No binding observed”. B11 was tested, and the “Results, binding to human ARG1 (BLI)” value was “No binding observed”.
